Measurements reported in the Immune Epitope Database (IEDB).
pKd: −log10 of the molar value.

Key:
HLA-A*02:01 [1] = assay: IEDB peptide-MHC binding, purified MHC/competitive/fluorescence; filed as Kd, often an IC50 or EC50 that approximates it; ≥ and ≤ were set here for values at or beyond the usual limits of such assays; details: source organism: Bacillus anthracis str. Ames
HLA-A*02:03 = assay: as above; details: source organism: Bacillus anthracis str. Ames
HLA-A*02:11 [2] = assay: as above; details: source organism: Bacillus anthracis str. Ames
HLA-A*02:12 [3] = assay: as above; details: source organism: Bacillus anthracis str. Ames
HLA-A*02:19 [4] = assay: as above; details: source organism: Bacillus anthracis str. Ames
HLA-A*03:01 [5] = assay: as above; details: source organism: Bacillus anthracis str. Ames
HLA-A*23:01 = assay: as above; details: source organism: Bacillus anthracis str. Ames
HLA-A*24:03 = assay: as above; details: source organism: Bacillus anthracis str. Ames
HLA-A*26:01 [6] = assay: as above; details: source organism: Bacillus anthracis str. Ames
HLA-A*29:02 = assay: as above; details: source organism: Bacillus anthracis str. Ames
HLA-A*68:02 = assay: as above; details: source organism: Bacillus anthracis str. Ames
HLA-A*69:01 [7] = assay: as above; details: source organism: Bacillus anthracis str. Ames
HLA-B*15:01 [8] = assay: as above; details: source organism: Bacillus anthracis str. Ames
HLA-B*15:17 = assay: as above; details: source organism: Bacillus anthracis str. Ames
HLA-B*18:01 [9] = assay: as above; details: source organism: Bacillus anthracis str. Ames
HLA-B*27:03 = assay: as above; details: source organism: Bacillus anthracis str. Ames
HLA-B*39:01 = assay: as above; details: source organism: Bacillus anthracis str. Ames
HLA-B*46:01 [10] = assay: as above; details: source organism: Bacillus anthracis str. Ames
HLA-B*51:01 = assay: as above; details: source organism: Bacillus anthracis str. Ames
HLA-B*57:01 = assay: as above; details: source organism: Bacillus anthracis str. Ames
HLA-A*01:01 = assay: IEDB peptide-MHC binding, purified MHC/direct/fluorescence; filed as Kd, often an IC50 or EC50 that approximates it; ≥ and ≤ were set here for values at or beyond the usual limits of such assays; details: source organism: Giardia lamblia ATCC 50803
HLA-A*02:01 [11] = assay: as above; details: source organism: Giardia lamblia ATCC 50803
HLA-A*02:06 = assay: as above; details: source organism: Giardia lamblia ATCC 50803
HLA-A*02:11 [12] = assay: as above; details: source organism: Giardia lamblia ATCC 50803
HLA-A*02:12 [13] = assay: as above; details: source organism: Giardia lamblia ATCC 50803
HLA-A*02:16 = assay: as above; details: source organism: Giardia lamblia ATCC 50803
HLA-A*02:19 [14] = assay: as above; details: source organism: Giardia lamblia ATCC 50803
HLA-A*03:01 [15] = assay: as above; details: source organism: Giardia lamblia ATCC 50803
HLA-A*11:01 = assay: as above; details: source organism: Giardia lamblia ATCC 50803
HLA-A*24:02 = assay: as above; details: source organism: Giardia lamblia ATCC 50803
HLA-A*26:01 [16] = assay: as above; details: source organism: Giardia lamblia ATCC 50803
HLA-A*31:01 = assay: as above; details: source organism: Giardia lamblia ATCC 50803
HLA-A*69:01 [17] = assay: as above; details: source organism: Giardia lamblia ATCC 50803
HLA-B*07:02 = assay: as above; details: source organism: Giardia lamblia ATCC 50803
HLA-B*08:02 = assay: as above; details: source organism: Giardia lamblia ATCC 50803
HLA-B*15:01 [18] = assay: as above; details: source organism: Giardia lamblia ATCC 50803
HLA-B*18:01 [19] = assay: as above; details: source organism: Giardia lamblia ATCC 50803
HLA-B*27:05 = assay: as above; details: source organism: Giardia lamblia ATCC 50803
HLA-B*40:01 = assay: as above; details: source organism: Giardia lamblia ATCC 50803
HLA-B*44:02 = assay: as above; details: source organism: Giardia lamblia ATCC 50803
HLA-B*46:01 [20] = assay: as above; details: source organism: Giardia lamblia ATCC 50803
HLA-B*58:01 = assay: as above; details: source organism: Giardia lamblia ATCC 50803
HLA-A*02:50 = assay: IEDB peptide-MHC binding, purified MHC/competitive/fluorescence; filed as Kd, often an IC50 or EC50 that approximates it; ≥ and ≤ were set here for values at or beyond the usual limits of such assays; details: source organism: Giardia lamblia ATCC 50803

Sequence: VILYFMYRK
- pKd (HLA-A*02:01 [1]): ≤ 4.70
- pKd (HLA-A*02:03): ≤ 4.70
- pKd (HLA-A*02:11 [2]): ≤ 4.70
- pKd (HLA-A*02:12 [3]): ≤ 4.70
- pKd (HLA-A*02:19 [4]): ≤ 4.70
- pKd (HLA-A*03:01 [5]): 6.28
- pKd (HLA-A*23:01): ≤ 4.70
- pKd (HLA-A*24:03): ≤ 4.70
- pKd (HLA-A*26:01 [6]): ≤ 4.70
- pKd (HLA-A*29:02): ≤ 4.70
- pKd (HLA-A*68:02): ≤ 4.70
- pKd (HLA-A*69:01 [7]): ≤ 4.70
- pKd (HLA-B*15:01 [8]): ≤ 4.70
- pKd (HLA-B*15:17): ≤ 4.70
- pKd (HLA-B*18:01 [9]): ≤ 4.70
- pKd (HLA-B*27:03): ≤ 4.70
- pKd (HLA-B*39:01): ≤ 4.70
- pKd (HLA-B*46:01 [10]): ≤ 4.70
- pKd (HLA-B*51:01): ≤ 4.70
- pKd (HLA-B*57:01): ≤ 4.70

Sequence: YLDMVLAFL
- pKd (HLA-A*01:01): ≤ 4.70
- pKd (HLA-A*02:01 [11]): 7.73
- pKd (HLA-A*02:06): ≥ 9.00
- pKd (HLA-A*02:11 [12]): ≥ 9.00
- pKd (HLA-A*02:12 [13]): ≥ 9.00
- pKd (HLA-A*02:16): ≥ 9.00
- pKd (HLA-A*02:19 [14]): ≥ 9.00
- pKd (HLA-A*03:01 [15]): ≤ 4.70
- pKd (HLA-A*11:01): ≤ 4.70
- pKd (HLA-A*24:02): ≤ 4.70
- pKd (HLA-A*26:01 [16]): ≤ 4.70
- pKd (HLA-A*31:01): ≤ 4.70
- pKd (HLA-A*69:01 [17]): ≤ 4.70
- pKd (HLA-B*07:02): ≤ 4.70
- pKd (HLA-B*08:02): ≤ 4.70
- pKd (HLA-B*15:01 [18]): ≤ 4.70
- pKd (HLA-B*18:01 [19]): ≤ 4.70
- pKd (HLA-B*27:05): ≤ 4.70
- pKd (HLA-B*40:01): ≤ 4.70
- pKd (HLA-B*44:02): ≤ 4.70
- pKd (HLA-B*46:01 [20]): ≤ 4.70
- pKd (HLA-B*58:01): ≤ 4.70
- pKd (HLA-A*02:50): ≥ 10.00
